The text below walks through data of patent US20240101645A1 (HENRY M JACKSON FOUNDATION FOR THE ADVANCEMENT OF MILITARY …, published 2024).

In experiment [1] the target is T1, HCoV-HKU1 spike antigens (bead panel) (HCoV-HKU1, UniProt Q5MQD0 13-1300).
T1 sequence: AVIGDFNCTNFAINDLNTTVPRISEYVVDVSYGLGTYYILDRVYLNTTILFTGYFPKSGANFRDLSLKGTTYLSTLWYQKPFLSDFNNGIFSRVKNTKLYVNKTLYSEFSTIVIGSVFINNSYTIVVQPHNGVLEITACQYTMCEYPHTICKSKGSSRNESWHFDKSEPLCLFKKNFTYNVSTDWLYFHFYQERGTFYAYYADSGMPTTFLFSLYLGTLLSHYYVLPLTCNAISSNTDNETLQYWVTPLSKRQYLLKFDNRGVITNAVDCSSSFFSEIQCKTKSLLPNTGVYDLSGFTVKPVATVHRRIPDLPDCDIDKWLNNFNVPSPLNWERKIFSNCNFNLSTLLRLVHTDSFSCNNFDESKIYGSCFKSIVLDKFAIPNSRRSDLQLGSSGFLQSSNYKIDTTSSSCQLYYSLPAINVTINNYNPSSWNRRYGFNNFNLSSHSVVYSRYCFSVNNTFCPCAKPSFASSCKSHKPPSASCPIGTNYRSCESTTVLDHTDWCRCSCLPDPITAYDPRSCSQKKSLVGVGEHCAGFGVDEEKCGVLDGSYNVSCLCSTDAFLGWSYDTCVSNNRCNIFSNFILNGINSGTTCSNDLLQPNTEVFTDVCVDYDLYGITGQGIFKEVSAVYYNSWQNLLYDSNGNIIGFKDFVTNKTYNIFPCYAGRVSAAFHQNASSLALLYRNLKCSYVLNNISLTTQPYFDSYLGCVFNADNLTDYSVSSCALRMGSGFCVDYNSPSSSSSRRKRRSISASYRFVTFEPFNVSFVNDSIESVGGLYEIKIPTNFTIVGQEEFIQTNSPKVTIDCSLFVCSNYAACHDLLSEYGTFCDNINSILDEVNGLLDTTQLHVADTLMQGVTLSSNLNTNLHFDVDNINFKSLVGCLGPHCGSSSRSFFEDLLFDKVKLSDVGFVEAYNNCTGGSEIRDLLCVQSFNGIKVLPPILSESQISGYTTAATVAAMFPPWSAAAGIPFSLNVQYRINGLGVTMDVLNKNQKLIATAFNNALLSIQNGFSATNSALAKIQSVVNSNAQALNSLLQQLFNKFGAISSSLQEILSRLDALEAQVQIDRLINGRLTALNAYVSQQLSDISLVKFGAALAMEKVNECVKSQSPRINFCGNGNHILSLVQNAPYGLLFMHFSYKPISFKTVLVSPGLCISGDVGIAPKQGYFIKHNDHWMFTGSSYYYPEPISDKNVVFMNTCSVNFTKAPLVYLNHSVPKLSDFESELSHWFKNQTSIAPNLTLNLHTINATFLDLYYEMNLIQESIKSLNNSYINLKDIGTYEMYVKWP
As to the kind of experiment: multiplex bead assay.

Experiment [2] has as its target T2, HCoV-OC43 spike antigens (bead panel) (HCoV-OC43, UniProt P36334 14-1297).
T2 sequence: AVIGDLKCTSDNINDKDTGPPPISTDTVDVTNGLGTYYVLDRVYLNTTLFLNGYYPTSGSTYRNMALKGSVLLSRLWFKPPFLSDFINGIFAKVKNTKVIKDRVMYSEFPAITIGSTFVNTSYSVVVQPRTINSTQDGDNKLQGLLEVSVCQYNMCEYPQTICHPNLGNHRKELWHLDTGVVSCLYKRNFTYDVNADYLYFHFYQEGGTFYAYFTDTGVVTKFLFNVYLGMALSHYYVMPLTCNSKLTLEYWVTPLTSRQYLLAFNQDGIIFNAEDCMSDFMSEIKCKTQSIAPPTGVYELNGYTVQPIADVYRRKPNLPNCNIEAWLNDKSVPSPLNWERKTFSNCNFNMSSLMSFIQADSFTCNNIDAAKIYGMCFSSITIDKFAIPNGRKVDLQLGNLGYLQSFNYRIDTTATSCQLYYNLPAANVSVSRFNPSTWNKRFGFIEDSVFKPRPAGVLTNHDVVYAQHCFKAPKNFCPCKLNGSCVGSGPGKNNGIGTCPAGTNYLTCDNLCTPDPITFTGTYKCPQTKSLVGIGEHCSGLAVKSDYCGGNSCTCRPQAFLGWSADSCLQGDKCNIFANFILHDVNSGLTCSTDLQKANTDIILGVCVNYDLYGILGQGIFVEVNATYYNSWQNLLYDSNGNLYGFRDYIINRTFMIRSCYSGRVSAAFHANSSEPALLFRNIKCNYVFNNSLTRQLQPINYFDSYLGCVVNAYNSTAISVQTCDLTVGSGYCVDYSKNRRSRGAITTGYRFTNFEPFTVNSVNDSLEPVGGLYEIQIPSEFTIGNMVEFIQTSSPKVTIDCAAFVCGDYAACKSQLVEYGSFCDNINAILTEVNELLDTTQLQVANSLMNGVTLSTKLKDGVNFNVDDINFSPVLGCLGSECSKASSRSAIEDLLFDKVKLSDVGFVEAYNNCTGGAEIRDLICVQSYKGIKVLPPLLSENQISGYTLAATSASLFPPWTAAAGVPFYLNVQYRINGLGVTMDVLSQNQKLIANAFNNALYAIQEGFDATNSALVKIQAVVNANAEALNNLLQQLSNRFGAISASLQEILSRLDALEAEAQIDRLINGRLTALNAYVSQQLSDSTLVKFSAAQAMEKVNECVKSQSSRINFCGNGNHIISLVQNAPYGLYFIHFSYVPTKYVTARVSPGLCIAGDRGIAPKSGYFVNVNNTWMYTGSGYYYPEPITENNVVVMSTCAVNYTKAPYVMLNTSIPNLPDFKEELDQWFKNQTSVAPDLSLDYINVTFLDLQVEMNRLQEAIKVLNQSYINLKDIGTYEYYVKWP
As to the kind of experiment: multiplex bead assay.

B1: COV_3129 (antibody, V domains shown)
VH: QVQLQQWGAGLLKPSDTLSLTCAANGGGSFSGYYLGYIRQSPGKGLEWIGEINHNGGTNYNPSLKSRVTISGDTSKNQFSLKLSSVTAADTAIYYCARSRDSSLGDAVWYEYWGQGTLITVSS
VL: EIVLTQSPATLSLSPGERATLSCRASQSVDIYLAWYQQRPGQAPRLLISDASKRATGVPARFSGSGSGTDFTLTINSLEPEDFAIYYCQQRRDWPINFGQGTRLEIKR
notes: human IgG1
As for B1, the binding result in experiment [1] and in experiment [2] was “no binding” in each case.

B2: COV_2215 (antibody, V domains shown)
VH: EVQLVESGGGLVKPGGSLRLSCAASGFTFSHAWMSWVRQAPGKGLEWVGRIKSKTDGGTADYAAPVKGRFTISRDDSKNTLYLQMNSLKTEDTAVYYCATIRYYYDSSAYLNDAFDIWGQGTMVTVSS
VL: SYELTQPPSVSVSPGQTARITCSGDALPKKYAYWYQQKSGQAPVLVIYEDSKRPSGIPERFSGSSSGTMATLTISGAQVEDEADYYCYSTDSSGNHRVFAGGTKLTVLG
notes: human IgG1
Turning to B2, the binding result in experiment [1] and in experiment [2] was “no binding” each time.

B3: COV_2125 (antibody, V domains shown)
VH: EVQLVESGGGVVQPGRSLRLSCAASGFTFSSYGMHWVRQAPGKGLEWVAVISYDGSNKYYADSVKGRFTISRDNSKNTLSLQMNSLRPEDTAVYYCAKDSPYYYDSSGYYPGYFQDWGQGSLVTVSS
VL: DIQMTQSPSSLSASIGDRVTITCRASQTISDYLNWYQQKPGKAPNLLIYAASTLQSGVPSRFSGSGSGTDFTLTISSLQPEDFATYYCQQSYITPRTFGQGTKVEIK
notes: human IgG1
For B3, the binding result in experiment [1] and in experiment [2] was “no binding” in each case.

B4: COV_2205 (antibody, V domains shown)
VH: EVQLVESGGGLVKPGGSLRLSCAASGFTFSDYYMIWIRQAPGEGLEWVSYISSRSSYTNYADSVKGRFTISRDNARNSLYLQMNSLRAEDTAVYYCARGQHDLLTGYYSWAYFDYWGQGTLVTVSS
VL: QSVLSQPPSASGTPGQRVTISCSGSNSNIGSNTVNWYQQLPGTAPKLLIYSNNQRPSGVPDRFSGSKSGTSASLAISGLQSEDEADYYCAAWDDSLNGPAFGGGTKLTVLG
notes: human IgG1
Take B4: the binding result in experiment [1] and in experiment [2] was “no binding” throughout.

B5: COV_3069 (antibody, V domains shown)
VH: EVQLVESGGGLVKPGGSLRLSCAASGFTFGSYTMNWVRQAPGKGLEWVSSIDTTSSSIYYADSLKGRFAISRDSAKNSLYLQMNRLRAEDTAVYYCARGNGHSYDSSGYHYGMYFDYWGQGTLVTVSS
VL: DIQMTQSPSTLSASVGDRVTITCRASQSISRWLAWYQQKPGKAPKLLIYEVSSLENGVPSRFSGSRSGTEFTLTISSLQPDDFAIYYCQQYNTYSRTFGQGTKVEIKR
notes: human IgG1
Take B5: the binding result in experiment [1] and in experiment [2] was “no binding” each time.
